Four molecules from article PMC6980676 (Molecular cell, 2019) can be followed below.

For series [1], the target named is T1, Vts1-SNAP (full length) (UniProt Q08831 1-523).
T1 sequence: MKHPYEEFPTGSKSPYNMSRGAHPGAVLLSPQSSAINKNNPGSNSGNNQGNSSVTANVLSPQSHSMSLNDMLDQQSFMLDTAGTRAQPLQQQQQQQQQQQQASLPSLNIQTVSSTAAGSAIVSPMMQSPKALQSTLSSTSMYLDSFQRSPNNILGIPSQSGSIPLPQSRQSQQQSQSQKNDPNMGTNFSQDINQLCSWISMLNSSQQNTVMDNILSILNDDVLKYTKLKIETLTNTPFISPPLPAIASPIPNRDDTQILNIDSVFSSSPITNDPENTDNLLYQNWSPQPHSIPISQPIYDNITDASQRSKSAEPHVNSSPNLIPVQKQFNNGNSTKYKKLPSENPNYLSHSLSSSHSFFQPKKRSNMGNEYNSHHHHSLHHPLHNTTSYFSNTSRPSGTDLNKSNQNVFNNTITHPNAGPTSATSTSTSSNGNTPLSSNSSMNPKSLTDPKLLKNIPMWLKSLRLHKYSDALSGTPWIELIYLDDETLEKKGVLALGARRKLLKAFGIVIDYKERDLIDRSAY
Description: fluorescence microscopy co-localization.

Series [2] concerns the molecule itself. Description: SEC.
Series [3] concerns the molecule itself. Kind of series: native gel or EMSA. In general terms: A gel shift assay detects complexes by their altered migration in electrophoresis.
Series [4] deals with T1, Vts1-SNAP (full length). Kind of series: fluorescence microscopy co-localization. This is another data set of the same source.

A value given as a limit tells only on which side of the number the result lay.

Regarding UAAUAAUCAGGUCGCCUGAUUAGUC (structured_RNA) [SRE- RNA (permuted SRE)], in series [1], the binding signal was > 5 fold lower co-localized signal than SRE+.

B1: full-length Vts1 with a C-terminal SNAP tag (natural protein, S. cerevisiae, UniProt Q08831 1-523, looked up)
chain: MKHPYEEFPTGSKSPYNMSRGAHPGAVLLSPQSSAINKNNPGSNSGNNQGNSSVTANVLSPQSHSMSLNDMLDQQSFMLDTAGTRAQPLQQQQQQQQQQQQASLPSLNIQTVSSTAAGSAIVSPMMQSPKALQSTLSSTSMYLDSFQRSPNNILGIPSQSGSIPLPQSRQSQQQSQSQKNDPNMGTNFSQDINQLCSWISMLNSSQQNTVMDNILSILNDDVLKYTKLKIETLTNTPFISPPLPAIASPIPNRDDTQILNIDSVFSSSPITNDPENTDNLLYQNWSPQPHSIPISQPIYDNITDASQRSKSAEPHVNSSPNLIPVQKQFNNGNSTKYKKLPSENPNYLSHSLSSSHSFFQPKKRSNMGNEYNSHHHHSLHHPLHNTTSYFSNTSRPSGTDLNKSNQNVFNNTITHPNAGPTSATSTSTSSNGNTPLSSNSSMNPKSLTDPKLLKNIPMWLKSLRLHKYSDALSGTPWIELIYLDDETLEKKGVLALGARRKLLKAFGIVIDYKERDLIDRSAY
As for B1, the “stoichiometry N” value in series [2] came out at 6.

B2: SNAP^549 labeled full-length Vts1 (natural protein, S. cerevisiae, UniProt Q08831 1-523, looked up)
chain: MKHPYEEFPTGSKSPYNMSRGAHPGAVLLSPQSSAINKNNPGSNSGNNQGNSSVTANVLSPQSHSMSLNDMLDQQSFMLDTAGTRAQPLQQQQQQQQQQQQASLPSLNIQTVSSTAAGSAIVSPMMQSPKALQSTLSSTSMYLDSFQRSPNNILGIPSQSGSIPLPQSRQSQQQSQSQKNDPNMGTNFSQDINQLCSWISMLNSSQQNTVMDNILSILNDDVLKYTKLKIETLTNTPFISPPLPAIASPIPNRDDTQILNIDSVFSSSPITNDPENTDNLLYQNWSPQPHSIPISQPIYDNITDASQRSKSAEPHVNSSPNLIPVQKQFNNGNSTKYKKLPSENPNYLSHSLSSSHSFFQPKKRSNMGNEYNSHHHHSLHHPLHNTTSYFSNTSRPSGTDLNKSNQNVFNNTITHPNAGPTSATSTSTSSNGNTPLSSNSSMNPKSLTDPKLLKNIPMWLKSLRLHKYSDALSGTPWIELIYLDDETLEKKGVLALGARRKLLKAFGIVIDYKERDLIDRSAY
modifications: SNAP-Surface 549 dye on the SNAP tag
For B2, the binding result in series [3] is “binds”.

In the case of UAAUAAUCAGCUGGCCUGAUUAGUC (structured_RNA) [SRE+ RNA], in series [4], the binding result is reported as “binds”.

What is called stoichiometry N is a count of units in the complex or per binding partner.
